{
  "source": "paper PMC3711072",
  "about": "“The Activity of CCL18 is Principally Mediated through Interaction with Glycosaminoglycans” (Frontiers in Immunology, 2013)",
  "binders": {"B1": {"name": "CCL11 (ligand)", "chain": "not shown", "notes": "chemokine CCL11; source: obtained from PeptroTech or produced as previously described (17)"}, "B2": {"name": "Evasin-1 (natural protein)", "chain": "EDDEDYGDLGGCPFLVAENKTGYPTIVACKQDCNGTTETAPNGTRCFSIGDEGLRRMTANLPYDCPLGQCSNGDCIPKETYEVCYRRNWRDKKN", "modifications": "glycosylated (sites not given)", "notes": "source: produced as previously described (18, 19)"}, "B3": {"name": "Evasin-4 (natural protein)", "chain": "EVPQMTSSSAPDLEEEDDYTAYAPLTCYFTNSTLGLLAPPNCSVLCNSTTTWFNETSPNNASCLLTVDFLTQDAILQENQPYNCSVGHCDNGTCAGPPRHAQCW", "modifications": "glycosylated (sites not given)", "notes": "as for B2"}, "B4": {"name": "CC chemokine ligand 18 (CCL18) (ligand, human, UniProt P55774 21-89, looked up)", "chain": "AQVGTNKELCCLVYTSWQIPQKFIVDYSETSPQCPKPGVILLTKRGRQICADPNKKWVQKYISDLKLNA"}},
  "key": {"[1]": {"biological_target": "T1, CCR3 (UniProt P51677 1-355)", "T1 construct": "CC chemokine receptor CCR3 expressed on L1.2 transfectants; In the functional rows on internalisation the CCR3 is the endogenous receptor of human eosinophils; also called CCR3 on L1.2/CCR3 transfectants; source: L1.2/CCR3 transfectants, on cells", "T1 sequence (looked up)": "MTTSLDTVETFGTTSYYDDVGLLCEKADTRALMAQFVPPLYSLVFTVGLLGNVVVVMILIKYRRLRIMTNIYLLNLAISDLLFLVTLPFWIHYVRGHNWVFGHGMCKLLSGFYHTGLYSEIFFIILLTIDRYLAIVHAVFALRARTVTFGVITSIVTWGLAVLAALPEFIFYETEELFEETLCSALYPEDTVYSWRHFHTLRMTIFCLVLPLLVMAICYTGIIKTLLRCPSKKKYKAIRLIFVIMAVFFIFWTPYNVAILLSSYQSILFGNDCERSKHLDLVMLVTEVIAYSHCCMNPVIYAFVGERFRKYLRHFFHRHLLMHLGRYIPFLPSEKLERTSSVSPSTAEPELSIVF", "experiment": "radioligand binding; equilibrium competition binding of 125I-CCL18 on L1.2/CCR3 transfectants, increasing concentration of unlabelled competitor", "conditions": "one partner purified"}, "[2]": {"biological_target": "B4", "experiment": "SEC; 500 ug CCL18 and an equimolar amount of Evasin incubated 45 min at RT in PBS, Superdex 75 in PBS, 1.5 ml/min, calibrated column; fractions on silver stained SDS-PAGE; CCL18 and Evasins also run alone", "conditions": "both partners purified"}, "[3]": {"biological_target": "T2, Radiolabeled CCL18 (125I-CCL18) (human, UniProt P55774 21-89, 125I label (radiolabeled; residue not stated))", "T2 construct": "CCL18, radioiodinated; also called tracer; source: bought: Anawa", "T2 sequence (looked up)": "B4 chain", "experiment": "radioligand binding; equilibrium competition: increasing concentration of Evasin against 125I-CCL18 binding to L1.2/CCR3 transfectants; Evasin binds the tracer", "conditions": "both partners purified"}, "[4]": {"biological_target": "T1, CCR3", "experiment": "cell-based or functional assay"}},
  "note": "Values joined by “and” are separate entries in the source; they are usually repeats but may differ in a detail not shown here. Identical values can stand only once.",
  "data": [
    {"binder": "B1", "values": [
      {"measurement": "IC50", "setting": "[1]", "result": 4.99, "unit": "nM"}
    ]},
    {"binder": "B2", "values": [
      {"measurement": "stoichiometry N", "setting": "[2]", "result": 1},
      {"measurement": "IC50", "setting": "[3]", "result": "9.92 nM and 7.94 nM"}
    ]},
    {"binder": "B3", "values": [
      {"measurement": "stoichiometry N", "setting": "[2]", "result": 1},
      {"measurement": "IC50", "setting": "[3]", "result": "0.015 nM and 0.03 nM"}
    ]},
    {"binder": "B4", "values": [
      {"measurement": "inhibition of CCL11-induced chemotaxis of L1.2/CCR3 transfectants by CCL18 previously incubated with a twofold molar excess of Evasin-3 (no effect of Evasin-3), IC50, n = 3", "setting": "[4]", "result": 446, "unit": "nM"},
      {"measurement": "inhibition of CCL11-induced chemotaxis of L1.2/CCR3 transfectants by CCL18 with Evasin-3 as a control, IC50 of the experiment shown", "setting": "[4]", "result": 421, "unit": "nM"},
      {"measurement": "inhibition of migration of L1.2/CCR3 transfectants to 1 nM CCL11 (blocks CCL11-CCR3), IC50 of the experiment shown", "setting": "[4]", "result": 557, "unit": "nM"},
      {"measurement": "inhibition of the chemotactic response of L1.2/CCR3 transfectants induced by 1 nM CCL11 (blocks CCL11-CCR3), IC50, mean of n = 7", "setting": "[4]", "result": 318, "unit": "nM"}
    ]}
  ]
}
